From article doi:10.1101/870667
Read-outs that look alike come from different tables or passages of the source.

Tests used:
[1] = molecular target: MLL1 core complex (MWRAD2 holo-complex) (human) (UniProt Q03164); assay: AUC
[2] = molecular target: MLL1 core complex (MWRAD2 holo-complex) (human) (UniProt Q03164); assay: AUC; remark: listed apart in the source

A stoichiometry N [1] of 2 and a stoichiometry N [2] of 18 were found for “MLL1 core complex (MWRAD2 holo-complex) (from UniProt Q03164;P61964;Q15291;Q9UBL3-3;Q9C005)” in this work.
